Biological target: taxol-stabilized microtubules polymerised from porcine brain tubulin (porcine) (UniProt P02550)
Assay: co-sedimentation

Substance: MBP-MTB-12Q (MBP-tagged Sli15 microtubule binding domain, twelve basic SAH residues to glutamine) (domain or fragment)
- decrease in the pellet fraction against MBP-MTB-WT: 20%

Substance: MBP-MTB-ΔSAH (MBP-tagged Sli15 microtubule binding domain with the SAH region deleted) (domain or fragment)
- decrease in the pellet fraction against MBP-MTB-WT: 20%

Source: doi:10.1101/2020.09.10.288878
